Results as given in article PMC12416549 (2024).
Where a chain is given by its changes, count along the chain named. Names may count otherwise.

T1: TNFR1 (Homo sapiens, UniProt P19438)
T1 chain: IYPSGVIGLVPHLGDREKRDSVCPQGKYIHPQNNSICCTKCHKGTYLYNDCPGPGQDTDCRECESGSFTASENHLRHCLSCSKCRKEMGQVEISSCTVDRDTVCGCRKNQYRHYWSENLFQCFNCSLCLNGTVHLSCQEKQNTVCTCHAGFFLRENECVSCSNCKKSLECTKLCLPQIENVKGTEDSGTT

B1: L12D (designed binder)
chain: MTLQELLREEADRRAEAEAFRYALELLAEKFPEQKEYLLDLAEEIESQIRSLSGVDVEDVRKFLDKEWAWVKELLAEHPAELAEVEAARAARLAELRAEVEAKVAA
B2: Q34L (designed binder)
chain: B1 chain with D12L, Q34L
B3: L38C (designed binder)
chain: B1 chain with D12L, L38C
B4: W68S (designed binder)
chain: B1 chain with D12L, W68S
B5: V85P (designed binder)
chain: B1 chain with D12L, V85P
B6: F31Q (designed binder)
chain: B1 chain with D12L, F31Q
B7: E58R (designed binder)
chain: B1 chain with D12L, E58R
B8: E25Y (designed binder)
chain: B1 chain with D12L, E25Y
B9: H78C (designed binder)
chain: B1 chain with D12L, H78C
B10: G54R (designed binder)
chain: B1 chain with D12L, G54R
B11: V85Q (designed binder)
chain: B1 chain with D12L, V85Q
B12: F20Y (designed binder)
chain: B1 chain with D12L, F20Y
B13: V55E (designed binder)
chain: B1 chain with D12L, V55E
B14: E46S (designed binder)
chain: B1 chain with D12L, E46S
B15: Q34T (designed binder)
chain: B1 chain with D12L, Q34T
B16: A23R (designed binder)
chain: B1 chain with D12L, A23R
B17: E10K (designed binder)
chain: B1 chain with E10K, D12L
B18: A88D (designed binder)
chain: B1 chain with D12L, A88D
B19: A42W (designed binder)
chain: B1 chain with D12L, A42W
B20: L74M (designed binder)
chain: B1 chain with D12L, L74M
B21: K62P (designed binder)
chain: B1 chain with D12L, K62P
B22: E18C (designed binder)
chain: B1 chain with D12L, E18C
B23: K72W (designed binder)
chain: B1 chain with D12L, K72W
B24: L96Q (designed binder)
chain: B1 chain with D12L, L96Q
B25: P32N (designed binder)
chain: B1 chain with D12L, P32N
B26: A11I (designed binder)
chain: B1 chain with A11I, D12L
B27: K72D (designed binder)
chain: B1 chain with D12L, K72D
B28: L12G (designed binder)
chain: B1 chain with D12G
B29: L64W (designed binder)
chain: B1 chain with D12L, L64W
B30: R13K (designed binder)
chain: B1 chain with D12L, R13K
B31: L38Q (designed binder)
chain: B1 chain with D12L, L38Q
B32: L39C (designed binder)
chain: B1 chain with D12L, L39C
B33: L64T (designed binder)
chain: B1 chain with D12L, L64T
B34: A98L (designed binder)
chain: B1 chain with D12L, A98L
B35: R21C (designed binder)
chain: B1 chain with D12L, R21C
B36: Q48K (designed binder)
chain: B1 chain with D12L, Q48K
B37: L7A (designed binder)
chain: B1 chain with L7A, D12L
B38: A28E (designed binder)
chain: B1 chain with D12L, A28E
B39: F31A (designed binder)
chain: B1 chain with D12L, F31A
B40: A15E (designed binder)
chain: B1 chain with D12L, A15E
B41: R92Y (designed binder)
chain: B1 chain with D12L, R92Y
B42: V85Y (designed binder)
chain: B1 chain with D12L, V85Y
B43: E5W (designed binder)
chain: B1 chain with E5W, D12L
B44: E99W (designed binder)
chain: B1 chain with D12L, E99W
B45: L64F (designed binder)
chain: B1 chain with D12L, L64F
B46: P32V (designed binder)
chain: B1 chain with D12L, P32V
B47: E9F (designed binder)
chain: B1 chain with E9F, D12L
B48: E84P (designed binder)
chain: B1 chain with D12L, E84P
B49: K30W (designed binder)
chain: B1 chain with D12L, K30W
B50: W70D (designed binder)
chain: B1 chain with D12L, W70D
B51: D40Q (designed binder)
chain: B1 chain with D12L, D40Q
B52: W70Y (designed binder)
chain: B1 chain with D12L, W70Y
B53: V71T (designed binder)
chain: B1 chain with D12L, V71T
B54: R92D (designed binder)
chain: B1 chain with D12L, R92D
B55: E101H (designed binder)
chain: B1 chain with D12L, E101H
B56: L24A (designed binder)
chain: B1 chain with D12L, L24A
B57: E9R (designed binder)
chain: B1 chain with E9R, D12L
B58: V55N (designed binder)
chain: B1 chain with D12L, V55N
B59: A105N (designed binder)
chain: B1 chain with D12L, A105N

Biological target: T1, TNFR1
Assay: yeast display SC50

Binder | apparent Kd (screen) [nM]
B1 | 1.05
B2 | 0.539
B3 | 4.39
B4 | 2.48
B5 | 2.25
B6 | 0.653
B7 | 0.869
B8 | 0.653
B9 | 0.593
B10 | 3.3
B11 | 0.869
B12 | 2.05
B13 | 15.2
B14 | 0.49
B15 | 0.539
B16 | 0.539
B17 | 8.56
B18 | 0.593
B19 | 4.83
B20 | 0.956

Binder | apparent Kd (screen) [nM]
B21 | 3
B22 | 0.79
B23 | 0.79
B24 | 0.539
B25 | 0.653
B26 | 0.368
B27 | 1.05
B28 | 2.25
B29 | 26.9
B30 | 0.869
B31 | 16.7
B32 | 1.16
B33 | 12.5
B34 | 0.539
B35 | 0.718
B36 | 7.07
B37 | 11.4
B38 | 5.84
B39 | 0.49
B40 | 0.718

Binder | apparent Kd (screen) [nM]
B41 | 0.49
B42 | 0.869
B43 | 0.539
B44 | 0.593
B45 | 0.869
B46 | 0.593
B47 | 0.49
B48 | 0.49
B49 | 0.653
B50 | 12.5
B51 | 0.446
B52 | 1.86
B53 | 1.27
B54 | 0.718
B55 | 0.718
B56 | 1.54
B57 | 1.4
B58 | 0.956
B59 | 0.593
